A protein production outcome set (Wang et al. 2014)

Test: label from the status in PepcDB records

## MTSDGATSTSAAAAAAAAAAARRKPSWRERENNRRRERRRRAVAAKIYTGLRAQGDYNLPKHCDNNEVLKALCVEAGWVVEEDGTTYRKPLPGEIAGTSSRVTPYSSQNQSPLSSAFQSPIPSYQVSPSSSSFPSPSRGEPNNNMSSTFFPFLRNGGIPSSLPSLRISNSCPVTPPVSSPTSKNPKPLPNWESIAKQSMAIAKQSMASFNYPFYAVSAPASPTHRHQFHTPATIPECDESDSSTVDSGHWISFQKFAQQQPFSASMVPTSPTFNLVKPAPQQMSPNTAAFQEIGQSSEFKFENSQVKPWEGERIHDVGMEDLELTLGNGKARG
  protein production: failed

## MSTFQQPDPRDRPARLTVGVVGAGRVGPALAASLQLAGHRPVAVSGVSDTSVRRAAAMLPDVPLVTPAQVLERADLVLLTVPDDALPGLVEGLAETGAVRPGQLLVHTSGRYGTKVLDPARSAGALPLALHPAMTFTGTAVDVQRLAGCSFGVTAPDELRLAAEALVIEMGGEPEWIAEENRPLYHAALALGANHLVTLVAESMELLRTAGVEAPDHMLGPLLGAALDNALRSGDGALTGPVARGDAGTVAAHVAELRKHAPGTVPGYLAMARATADRALAHGLLKPELAEDLLGVLANGTEGDAG
  protein production: failed

## MTYSFSKPVSWVFLFTAVIYLVSLSFIQYPATTVLKPIPIVCLIVGVFRTSLSSSAKILLILALVFSLAGDVVLTLPFSLQLELGIACFLLAHCFYITLFLKSFEFNRLHLFYYLPIFLFMGFAAFTMIPYLGNLLIPVMIYFCVLMLMVFSAFQVKKETLTISSGALFFLISDLTLALNLFIYTQADVRIFVMFTYYVAQFLLTFGLVRLYEKGG
  protein production: failed

## MFSPQASAAYDDLHEGYATYTGSGYSGGAFLLDPIPSDMEITAINPADLNYGGVKAALAGSYLEVEGPKGKTTVYVTDLYPEGARGALDLSPNAFRKIGNMKDGKINIKWRVVKAPITGNFTYRIKEGSSRWWAAIQVRNHKYPVMKMEYEKDGKWINMEKMDYNHFVSTNLGTGSLKVRMTDIRGKVVKDTIPKLPESGTSKAYTVPGHVQFPELEHHHHHH
  protein production: not failed

## MSPDLIPHQKSLSPSYLVFCDVDETLIRCKSGPEFLRHYFEFRHGAEGARRTEELLADLYARLARGLPRDEANREYHRAWRRCPVDEVEDRARHWYRERSRAADFYITATVDALRRHRAEGGAVALVSGSFPPLLPLVAEEVGAQYVLGARLERCGRVLTGELLGLPAIGDGKRVLARELLARHPHIDPADCYAYGDHPSDLPMLHMVGHATLVTPDGTHAPVKPAALT
  protein production: failed

## MYLLRINIEGTINYGLYKYLYPALKAAEGKKSIAGLILVFNSGGGDAASSQLIHDLVKKIRKKKPVYSLALGICASGAYWIASASTKIYAIDTSLIGSIGVISIRPNVKKLMEKIGVDVMVYKSGKYKDMTSPFSEPNEEEKSVYQRLLDDIFEKFKRSVAEDRGIPSEKIDEIANGMVYSAKMAADNGLIDRIANYDDLVSDLTKEVGKRLKVKEFYIRKPLLQRLLGILEHHHHHH
  protein production: failed

## MSSASGLRRGHPAGGEENMTETDAFYKREMFDPAEKYKMDHRRRGIALIFNHERFFWHLTLPERRGTCADRDNLTRRFSDLGFEVKCFNDLKAEELLLKIHEVSTVSHADADCFVCVFLSHGEGNHIYAYDAKIEIQTLTGLFKGDKCHSLVGKPKIFIIQACRGNQHDVPVIPLDVVDNQTEKLDTNITEVDAASVYTLPAGADFLMCYSVAEGYYSHRETVNGSWYIQDLCEMLGKYGSSLEFTELLTLVNRKVSQRRVDFCKDPSAIGKKQVPCFASMLTKKLHFFPKSNLEHHHHHH
  protein production: failed

## NQLLTQQANEDGLTKLFNRRYIDQKLDSMVAWHGRHHMPMAMILLDVDFFKPFNDNYGHIEGDRCLQAIANQLKATFCRSGEYVGRYGGEEFVVLLSSTDAQTAEREAERIQEAMYFLDYQHEFSSVANRVTVSQGVFVFQPTGKENQADLYATADRALYTSKSLGRNTYTMVNAS
  protein production: not failed

## MASADEKVVEEKASVISSLLDKAKGFFAEKLANIPTPEATVDDVDFKGVTRDGVDYHAKVSVKNPYSQSIPICQISYILKSATRTIASGTIPDPGSLVGSGTTVLDVPVKVAYSIAVSLMKDMCTDWDIDYQLDIGLTFDIPVVGDITIPVSTQGEIKLPSLRDFF
  protein production: not failed

## MADFLLELRSEEIPAGLQKMAVEKLAELLSAKLKEAGINPTKIEKYATPRRIALLMRDLPAKTEAVQEERRGPRADAPEKALAGFLRSTGLTKEELELRETPKGNFYYAHIEKPGQTLIALLGEAIPAIIKTFPWPKSMRWGNFSASSESLRWVRPLKGIVALIDEQLIPIELDGITSGTETKGHPFHHPDVVTLAKASDYPEKMAAAHVMIDFDARVQKITDEARKAAQKAGLTLIEDAALAQENAGLTEWPVPLLGRFDEAYLAVPREVIQLTMRTNQKYFACTDRNQDLAAVFICVADMEAQDGGKEITQGNEKVLSARLADARFFWEQDLKIPLEDWLPRLDSVLFYEGMGSVGDKAKRIAHLSGYIADQIGADRKQAERAGLLAKADLASNMVGEFPELQGVMGGYYAKAGNEAPDVVSAVSGQYQAEAGAGVAAAVSLADRIDSLACFFVRNIRPTGSKDPFALRRAAVQIIQTIIAHQLRLPLTPLFEKAGAGDQIESLLAFITERLKVQQREAGIRYDLIDAVLALGYEDDVIRLLARVQALQSFIESEDGSDLLAGYRRAVNILKGSEASEKGDISQEDIEQPEQDLQKALQAIEAPLEQALKAEDYAAAMTALASLRQPIDQFFDKVIVNHDKAGIRSRRLALLEQIRTAMHQVADFSVVEALTIEASGRKR
  protein production: failed

## MRGARKSMGRVSYLRLPHLSGDQLCFVAEDDLWLASLDGPGRAWRLTVDRTKAGPPRFSPDGRHIAYTSWRTLVPEVHLVPVDGGPGRQLTHWGGLDTRVCGWSPPDPDGTTAVLAVASHGEPFSHLTWAYKVTPDGDPGRKLPWGPVTDIQAADLDGERRTLLLTGTPPHEPAAWKRYRGGATGRLWLHGERLLPDLGGHLSAPMFVGGRIAFLSDHEGVGNLYSCAQDGTGLRRHTDHDAFYARNAASDGTRVVYQCAGDLWIVDDLAPGSAPRRLDVRLSGPRAGRRTHQVPAAQHVGGISVDETGRASAVVVRGSLYWLTHRDGPARTIADTPGVRVRLPEMLGESGRIAYVTDAEGEDAVEISYLPRATGGRAARRLASGRLGRVLELVSDPAGDRLAVASHDGRLLILDVAEPDTEVTLALEAVDAGYPPDAGDEDAAGTAARADSAPDAPAEDTDARDIAAGTGTGDIADADAAAGGTVTPGSPGTPATAGGQVTELIRSVNGPVRDLAFSPDGTWLTWSHPGIGRTLRQIKMARIDGPEGTLVVDVTNGRFEDENPVFTRDGRYLAFLSWRGFDPVYDVHTGDLSFPLGCRPYLVPLSSATPSPFALNPEGRPAAGGLDPLEDEPGEGGAVMVEVEGLESRVTPFPVTASKYSALEPVAGGGLVWLRWPISGALGETFANPADPSERPTLEHFNLAKAKKSELVDHLDWFRVSGDGSRLVVLDEGELRAVPASEVGDGDSTTWIDLRRILHEVDPAAEWRQAYDEAGRLIRAYFWDPGMCGIDWDAVLDQYRPLLERVASPDEFADLLREVLGELGTSHAYVVAARRNEGPAHYQRWQGLLGANLACRDGRWLVRRILPGDSSDSKARSPLAGTGIRDGAVLTHVDGRPVDPVLGPSPLLAGAGGTTVELTFAPAEGCQGPSRRVAVVPLVDERPLRYQDWVAKRREVVRELSGGRCGYLHIPDMGGSGWAQFNRDLRMEVSRPALIVDVRGNAGGHISELVIEKLTRTILGWDLTRDAQPVSYTSNAPRGPVVAVADEATSSDGDMITAAFKLLRLGPVVGQRTWGGVVGMTGRHRLGDGSVITVPMNAAWFDAYGWSVENYGVAPDVEALRTPLDWAEGRYPVLDEAVRLALELLETNPPATPPGYEAVPDRSRPPLPPRE
  protein production: failed

## MVFSGPASPGLTLAPLRRGGIDPCYRVDAAGAIWRTSLMPSGPVTARITRAATDAADCQAWGEGADEFIDRLPALLGVDDDASDFAPAEPTIAKARRQVPHLRLGRTGRMLEALIPAIIEQRVYGLDAWRAWRALVTKFGTPAPGPAPDGMRVVPSAEVWRRIPSWEFHRANVDPGRARTIVMCAQRADSLERLTHERAAVTLRSLPGVGEWTAAETMQRVFGDADALSAGDYHLATLVGQALTGEPVDDAGMVELLEPMRPHRHRAVRLLEASGMFVYRRRGARQAIPKLRTLLEHHHHHH
  protein production: failed

## MNLELLTLAVGAYAAVLAFLGWLGYRRTRSAADYLVGGREIHPVLMALAYGSTFISTSAIVGFAGVAALMGMGLLWLTMLNILLGVFVAFVVFGRPTRRLGAALDAHTFPELLGRRYRSRFIQGFAGGTIALLMPLYAAAVLIGGARFLEVQLRLDYHMALFVFAAITVGYVLFGGLKGVVYTDAFQAVLMVCGMLVLLVATYAQVGGLSAHQALTDLADQVPPALRAQGHRGWTAMPAAGSPLWWQMVSTIVLGVGIGVLAQPQLTVRFMTVKSGRELHRALVPGGLFLLLMAGVAYVVGSLTNLWYFQRTGKIALAIMTDPATGKPNVDRLMPLYTQAAMPEWFAYLFMLALLAAAMSTLSAQFHAIGTAIGRDLYEQAFRLGGGAERTVLLARAGILAGFAGTVLLAWNLGPGVIAIATALFFGMCAATFLPAFVSALFWARSTRAGVIAGMLAGFGAWALWVLFVHERESAALGVVKALTGRTSLGAGTTWALVDPIVVALPIAALVTVVGSLAGRAAPGAETGGPARTREGGLDAGLR
  protein production: failed

## MQRVLGFSTCSYSWIAQSFNRFHPRCIQPTCFRSKVTKLCPKRPRSSLLSDNNATKYPQKAIYLTAQVKLPQISEVQNATFDQCLPLARNICFRLQEEPQDENAYQVLKELLSREEGARAFFVEYLSDYELSLPDKKPPFKLEKLLKDCDEYVPNLLARNLAMSVAKEVDLANDSKNAENEEVDDTGSGSWSDSVEESSGGPTMVKERTALLIDSIASSEIARELVALWFSIRSRKGKYVHFLERQKFRKDQLDVIQRTLEVFIGA
  protein production: failed

## MKINKELYSIALVLTVLFFVFSILISSVASAAQVTRIGSGSDPAIYGNKIVWTSGGVIHLYDLTSKTGTTVSSSAASHPAIYGNKLVWHDKSSGVPRLTVYDIPSGARSYITQDVGNYSFPAIYGNRIVWSANYNRSSYSYNVYMRDISTSTQVWIAQGENPEIYETKITYGYDDDDGRNIAVYDVNTKETINVHHSSQVFNPHMYGNKVIWSNFYTRSGFIQMYDLVAKKAIDVTSDNTGNTLYGSDTIDAGDDTGTHIDISGDEIVYSKSGDDQFGYAGVYVYDIPSAKSTPVYIYPRGTHTTPDIYNDTIVWGIDSSYGGVNDTGIYICDLSVTNTLPPVAEFTANTTYGAAPLVVLFTDASTGGVPTSWIWDFGHGIDSKHVMNATHTFTKPGNYTISLTAGNDAGNNKVMKPNYIVVTNPFPVANFSSNVTHGYPPLSIQFTDLSQNATGWNWDFGDGSNSTQRSPVHEYADSGIYSVNLTAINENGTDSKLTTITVMQLVGVGPYAYITNSGDNNVSVIDTTTNKVTAMIPVGNYPMGVAVTLDGKKVYVTNFFGRTISVIDATKNKVTATIPLGNSPRGVAVSPDGKRVYVPHHEVGNPSNNTTLIIDTDTNEVEATVLVGEVPFGVAVTLDGKKVYVTNLRDKTVSVIDTATNTVIATIPVGDDPCGVAISPDGKKVYVGNRGDSTVSIIDTATNTVTATVDLENSPYGIVVNPTGTKVYVAGTKKAYAAGTVDGFVSVIDTATNKVTATIPVGNSPFGVAVTPDGSKVYVANQLRDTVSVIDTSTNKVTATMNVGRNPNSFGQFIGSLQAQPIFPVANFSSNVTEGYAPLTVKFNDMSQKATSRIWDFNGDGQLDSSNINPVYIYANPGTYTVNLTVSNKNGTDSKTAAINVLTPSSSSGVSSHSSSSGG
  protein production: failed

## MEVFLKEFLLNKFFIDFFYKNQNNITIKTILVTFKVIFSICFNSSNFGLRYSKKKTLNLSELMHLVTFMLAYFLIQV
  protein production: failed

## VDKINPDLRVHLRLDRGEAILSLDLSGHSLHQRGYRLQQGAAPLKENLAAAILIRAGWPRIAAEGGALADPMCGVGTFLVEAGMIAADIAPNIKRERWGFSAWLGHVPTLWRKLHDEALARAEAGLAKTPSWIRGYEADPRLIQPGRNNIERAGLSDWIKVYQGEVATFEPRPDQNQKGLVICNPPYGERLGDEASLLYLYQNLGERLRQACLNWEAAVFTGAPDLGKRMGIRSHKQYSFWNGALPCKLLLIKVTPDQF
  protein production: failed
